According to PMC10373194, “Determination of the Dissociation Constant for Polyvalent Receptors Using ELISA: A Case of M13 Phages Displaying Troponin T-Specific Peptides” (ACS Omega, 2023):
“And” between values parts separate entries of the source, which are not always exact repeats. Equal values may be shown once. Read-outs that look alike come from different tables or passages of the source.

Key:
troponin T (TnT) [1] = biological target: T1, troponin T (TnT) (Homo sapiens, UniProt P45379); assay: Determination of Kd via k-ELISA (Friguet procedure, preincubation of phage with soluble TnT); assay type: binding
Method: During an ELISA experiment, as proposed by Friguet,[21] a constant concentration of phages is incubated with different concentrations of TnT. Saturation of phages (in solution) by soluble TnT limits the ability of phages to bind to immobilized TnT, and therefore, increasing concentration of TnT causes a decrease in signal from the phages, in our case, the M13. Theoretically, two options have to be discussed: (1) a signal (a) is generated for each phage with at least one unoccupied active site (eq 11) and (2) a signal (a) is generated proportionally to the total concentration of unoccupied active sites (eq 12). [drawing 21] 11 [drawing 22] 12
ELISA (also k-ELISA) can be used to measure the dissociation constant (Kd), which is commonly applied to describe affinity.[21] According to the mathematical model presented above, the Kd value can be calculated via pre-incubation of a receptor with varied concentrations of ligand and subsequent detection of the soluble receptor (phage) via ELISA. This approach was adapted and applied to evaluate the affinity of several phage-derived ligands[16]−[18] but without a theoretical analysis and fulfilling fundamental Friguet’s assumptions.[21] In these papers, phages were treated as monovalent receptors while they are tri to pentavalent (due to a varied number of pIII protein per phage particle). Moreover, the authors applied a wide range of ligand concentrations, high excess compared to the receptor and treated the concentration-signal function as logarithmic, while the discussion above concluded that it is not possible to apply Frigeut’s method for almost completely saturated receptors (due to ligand excess).
In our work, analysis was performed for clones: A3, B7, D11, and wild-type M13. […] The phages’ total concentration was about 1 × 10^10 pfu/mL (16 pM) and was carefully determined using the biological method immediately before analysis. The range of ratios of total TnT and total phage concentration was 1:2, 1:1, 2:1, and 4:1. […] As a result, a decrease in the ability to bind to immobilized TnT molecules occurs. Experimental data were analyzed according to the presented mathematical model.
The dissociation constant was calculated using k-ELISA, according to the procedure first described by Friguet.[21] Phages (∼10^10 pfu/mL corresponding to about 16 pM) were preincubated with different concentrations of TnT from 0 to 4 ng/mL (which corresponds to 108 pM). Next, mixtures were transferred into wells precoated with 0.25 μg/mL TnT (or BSA). Further steps were performed in the same manner as for phage concentration measuring experiments.

troponin T (TnT) [2] = biological target: T1, troponin T (TnT); assay: ELISA screening of isolated phage clones against TnT (BSA as negative control)
Method: It is worth mentioning that both TnT- and BSA-precoated wells were blocked with the same 0.1% BSA solution, so BSA was present in each well in significant excess.
ELISAs were performed in 96-well polystyrene plates (Thermo Scientific, USA). Wells were precoated with the desired protein by 16–20 h incubation of the protein suspension in PBS at 4 °C. In all assays, 1:5000 dilution of HRP-antiM13pVIII monoclonal antibody conjugate was used. Signals were recorded using Synergy HTX Multi-Mode Reader by BioTek.
In the initial screening, plates were precoated with troponin T or BSA (negative control) by incubating 100 μL of 1 μg/mL appropriate protein solution. Then plates were blocked with 0.1% BSA for 2 h at 4 °C and washed 4 times with 0.1% PBST. Every isolated phage clone solution (phages concentration 10^10 pfu/mL, 100 μL) was incubated with TnT and BSA for 1 h at 350 rpm at room temperature. Then wells were washed 4 times using 0.1% PBST, 100 μL of HRP-antibody conjugate was added, and plates were incubated as previously. After 1 h, plates were washed as before, and 50 μL of TMB was added. After 5 min, the reaction was stopped by adding 50 μL of 2 M sulfuric acid. Absorbance at 450 nm was read using a Synergy HTX Multi-Mode Reader (BioTek) plate reader.

troponin T (TnT) [3] = biological target: T1, troponin T (TnT); assay: Bio-panning of Ph.D.-12 phage display library on TnT-coated plates; assay type: binding; details: after 3 rounds of bio-panning; number of proper sequences
Description: In each bio-panning round, the input and output phases were titrated immediately before or after the experiment. The presented mean p(O/I) value for each bio-panning round may be interpreted as the efficiency of phage binding. In chemical nomenclature, p(x) is defined as −log(x), so a higher p(O/I) means a lower ratio of phage output–input. The p(O/I) value for the first panning round is relatively low. However, usage of more concentrated Tween-20 (from 0.1 to 0.5%) causes a significant increase in p(O/I) values for the second round (around 4) despite a higher phage input. In addition, there is a difference between the second and the third p(O/I), which may be interpreted as an enrichment of TnT-binders in the phage pool, and it is the main aim of bio-panning via phage display. The increase in phage recovery yield is a widely reported observation by manufacturers and other authors.[14],[17],[35],[36]
Plate panning was performed regarding the general concept presented by Barbas et al.[60] with some modifications. Polystyrene plates were precoated with TnT and incubated overnight (18–24 h) in 100 μL of 20 μg/mL TnT solution in PBS at 4 °C. Then, the wells were emptied and filled with 100 μL of 0.1% BSA solution (in PBS) and incubated for 2 h in the fridge. Later, they were washed four times with PBST 0.1% (in the first panning round) and 0.5% in the next two. […]

troponin T (TnT) [4] = biological target: T1, troponin T (TnT); assay type: binding
[5] = assumed stoichiometry 1:1, k-ELISA, phages ~10^10 pfu/mL (about 16 pM) preincubated with TnT 0 to 4 ng/mL, wells precoated 0.25 μg/mL TnT, 0.01% myoglobin blocking, absorbance 370 nm every 70 s for 10 min, linear slope regression, triplicate, phage-displayed peptide
[6] = assumed stoichiometry 1:2, k-ELISA, phages ~10^10 pfu/mL (about 16 pM) preincubated with TnT 0 to 4 ng/mL, wells precoated 0.25 μg/mL TnT, 0.01% myoglobin blocking, absorbance 370 nm every 70 s for 10 min, linear slope regression, triplicate, phage-displayed peptide

Substance	Kd (troponin T (TnT) [1]; [5])	Kd (troponin T (TnT) [1]; [6])	Kd (troponin T (TnT) [1]; assumed stoichiometry 1:5, k-ELISA, phages ~10^10 pfu/mL (about 16 pM) preincubated with TnT 0 to 4 ng/mL, wells precoated 0.25 μg/mL TnT, 0.01% myoglobin blocking, absorbance 370 nm every 70 s for 10 min, linear slope regression, triplicate, phage-displayed peptide)	ELISA signal TnT versus BSA / affinity in screening (in words) (troponin T (TnT) [2])	frequency among sequenced clones (troponin T (TnT) [3])	Kd (troponin T (TnT) [1])	nature of interaction with target (troponin T (TnT) [4])
B7: TnT-binding M13 phage clone displaying 12-amino-acid peptide (HRSMPTPLWYTA in Table 2) on pIII	77 ± 13 pM	166 ± 30 pM	143 ± 53 pM	–	–	–	–
D11: TnT-binding M13 phage clone displaying 12-amino-acid peptide (ALKIGPETTIYM in Table 2) on pIII	167 ± 7 pM	216 ± 40 pM	–	–	–	–	–
DHAQRYGAGHSG [A3]	–	–	–	highest affinity in screening	4 out of 16 and 4/16	115 pM and 187 pM and 172 pM	specific interaction with the studied target
